Values quoted from earlier work as cited in article PMC5146272.
pKd: −log10 of the molar value.

How the values were obtained:
[1] = target: Raver1 (Homo sapiens) (UniProt Q8IY67)
[2] = target: U2AF35 UHM (Homo sapiens) (UniProt Q01081)
Sequence of U2AF35 UHM (Homo sapiens) (Q01081 43-146, one chain of several): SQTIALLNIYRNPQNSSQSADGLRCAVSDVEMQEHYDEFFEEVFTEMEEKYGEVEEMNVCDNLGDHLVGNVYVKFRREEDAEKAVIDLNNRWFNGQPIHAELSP

Sequence of Raver1 (Homo sapiens) (Q8IY67 2-606): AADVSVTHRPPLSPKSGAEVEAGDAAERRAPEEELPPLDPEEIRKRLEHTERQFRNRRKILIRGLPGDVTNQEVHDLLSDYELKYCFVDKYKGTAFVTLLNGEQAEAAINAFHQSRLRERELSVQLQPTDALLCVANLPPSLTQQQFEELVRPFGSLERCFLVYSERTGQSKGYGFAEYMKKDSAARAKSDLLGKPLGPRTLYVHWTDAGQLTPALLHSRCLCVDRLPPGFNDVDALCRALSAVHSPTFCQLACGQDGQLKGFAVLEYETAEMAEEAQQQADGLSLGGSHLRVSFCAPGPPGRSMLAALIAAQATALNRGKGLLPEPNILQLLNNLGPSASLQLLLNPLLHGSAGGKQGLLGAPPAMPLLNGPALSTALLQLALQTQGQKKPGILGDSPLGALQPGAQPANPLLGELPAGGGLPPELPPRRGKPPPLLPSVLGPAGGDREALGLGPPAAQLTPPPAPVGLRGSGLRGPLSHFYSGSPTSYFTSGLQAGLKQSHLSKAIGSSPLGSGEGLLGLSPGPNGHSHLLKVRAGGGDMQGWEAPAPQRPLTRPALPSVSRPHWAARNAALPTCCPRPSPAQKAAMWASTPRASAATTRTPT
Sequence of U2AF65 PEP (P26368 85-112, one chain of several): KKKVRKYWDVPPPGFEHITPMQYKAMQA
Sequence of PTB RRM (P26599 184-260): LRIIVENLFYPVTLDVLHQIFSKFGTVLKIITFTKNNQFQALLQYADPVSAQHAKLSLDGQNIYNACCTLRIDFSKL

pKd [1]	pKd [2]	Substance
4.00		PTB RRM (from UniProt P26599)
	8.70	U2AF65 PEP (from UniProt P26368)
